Assay results published in patent publication US20090304651A1 (published 2009).
Where two headings read alike, the source gives them in different places.

Assays:
[1] = target: T1, recombinant human IGF-II (Insulin-like Growth Factor II) (human, UniProt P01344 25-91, biotinylated (Biotinyl-IGF-II, GroPep) where immobilised in SPR, site not stated; not biotinylated in ITC and as SPR analyte); assay: SPR, steady-state KD relative to wild type
T1 construct: also called IGF2; IGF-2
Protocol: […]. Values are the mean±S.E.M. of three separate experiments.
Kinetic analysis by Surface Plasmon Resonance (SPR) was conducted on a BIAcore 3000 biosensor (BIAcore, Uppsala, Sweden) at 25° C. in HBS-EP (10 mM HEPES, pH 7.4, 150 mM NaCl, 3 mM EDTA, 0.005% surfactant P20) at a flow rate of 40 μl/min. […] Kinetic experiments consisted of a two minute injection of analyte followed by a 100 s dissociation phase in running buffer, after which the binding surface was regenerated with a 2 minute injection of 2 M MgCl₂. A blank flow cell was used for in-line reference subtraction of changes due to differences in refractive index of running buffer versus sample and a buffer-only injection was used to subtract instrument noise and drift. Injections were performed in duplicate for each concentration and in a randomised order. Kinetic parameters were determined by global fitting of sensorgrams to a two-state (conformational change) binding model using BIAevaluation software version 4.0.1. In all cases the minor component made an insignificant contribution to the overall affinity and as such only the kinetic parameters of the major binding component were used. For each interaction the dissociation affinity constant (KD) was also calculated by fitting of the response of each concentration at equilibrium to a steady-state affinity model using BIAevaluation. In order to investigate the influence of ionic strength, kinetic experiments were conducted in HBS-EP running buffers containing the desired NaCl concentration. In each case, analyte samples were made up in the appropriate running buffer prior to injection.
Following purification, the binding of each mutant construct to IGF2 was assessed by SPR and compared to the wild type domain 11.

[2] = target: T1, recombinant human IGF-II (Insulin-like …); assay: SPR, IGF-II immobilised, steady state
Procedure, shortened: (§1)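 Pichia pastoris-secreted, His-tag-purified domain 11 proteins were injected in duplicate over ~50 RU biotinylated IGF-II on a streptavidin Sensor Chip SA. Runs used a BIAcore 3000 at 25° C in HBS-EP at 40 μl/min, with 2 min injections and blank-flow-cell and buffer-injection subtraction. Analyte ran at 4096–8 nM, or 16384–32 nM for three constructs.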

[3] = target: T1, recombinant human IGF-II (Insulin-like …); assay: SPR, steady-state KD relative to wild type; remark: listed apart in the source
Procedure, shortened: as §1

[4] = target: T1, recombinant human IGF-II (Insulin-like …); assay: SPR, IGF-II immobilised, kinetic fit
Procedure, shortened: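 Pichia pastoris-secreted, His-tag-purified domain 11 proteins were injected in duplicate, in randomised order, over ~50 RU biotinylated IGF-II captured on a streptavidin Sensor Chip SA. Runs used a BIAcore 3000 at 25° C in HBS-EP at 40 μl/min, with 2 min injections, 100 s dissociation and 2 M MgCl₂ regeneration. Analyte ran at 4096–8 nM, or 16384–32 nM for three constructs. Association and dissociation rates and Kd came from global sensorgram fitting in BIAevaluation 4.0.1, after blank-flow-cell and buffer-injection subtraction.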

T1 sequence (P01344 25-91 limits assumed): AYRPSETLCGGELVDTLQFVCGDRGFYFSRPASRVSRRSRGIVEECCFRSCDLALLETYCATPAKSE

| Binder | Relative Affinity [1] | Kd [2] [nM] | Relative Affinity [3] | Kd [4] [nM] | koff [4] [s⁻¹] | kon [4] [M⁻¹ s⁻¹] |
| --- | --- | --- | --- | --- | --- | --- |
| IGF2R domain 11 G1619R (amino acids 1511-1650, C-terminal His6 tag, from Pichia pastoris) (receptor, also called polymorphism G1619R) NEHDDCQVTNPSTGHLFDLSSLSGRAGFTAAYSEKGLVYMSICGENENCPPGVGACFGQTRISVGKANKRLRYVDQVLQLVYKDGSPCPSKSGLSYKSVISFVCRPEARPTNRPMLISLDKQTCTLFFSWHTPLACEQATHHHHHH | 0.9 fold (wild type = 1.00) | – | – | – | – | – |
| IGF2R domain 11 with arginine at position 1544 (E1544R) (receptor) NEHDDCQVTNPSTGHLFDLSSLSGRAGFTAAYSRKGLVYMSICGENENCPPGVGACFGQTRISVGKANKRLRYVDQVLQLVYKDGSPCPSKSGLSYKSVISFVCRPEAGPTNRPMLISLDKQTCTLFFSWHTPLACEQATHHHHHH | – | 14.1 | 7.33 fold (wild type = 1.00) | 17.8 | 0.0407 | 2.29e+06 |
| IGF2R domain 11 with asparagine at position 1544 (E1544N) (receptor) NEHDDCQVTNPSTGHLFDLSSLSGRAGFTAAYSNKGLVYMSICGENENCPPGVGACFGQTRISVGKANKRLRYVDQVLQLVYKDGSPCPSKSGLSYKSVISFVCRPEAGPTNRPMLISLDKQTCTLFFSWHTPLACEQATHHHHHH | – | 118 | 0.88 fold (wild type = 1.00) | 141 | 0.122 | 867000 |
| IGF2R domain 11 with aspartate at position 1544 (E1544D) (receptor) NEHDDCQVTNPSTGHLFDLSSLSGRAGFTAAYSDKGLVYMSICGENENCPPGVGACFGQTRISVGKANKRLRYVDQVLQLVYKDGSPCPSKSGLSYKSVISFVCRPEAGPTNRPMLISLDKQTCTLFFSWHTPLACEQATHHHHHH | – | 213 | 0.48 fold (wild type = 1.00) | 230 | 0.14 | 608000 |
| IGF2R domain 11 with glutamine at position 1544 (E1544Q) (receptor) NEHDDCQVTNPSTGHLFDLSSLSGRAGFTAAYSQKGLVYMSICGENENCPPGVGACFGQTRISVGKANKRLRYVDQVLQLVYKDGSPCPSKSGLSYKSVISFVCRPEAGPTNRPMLISLDKQTCTLFFSWHTPLACEQATHHHHHH | – | 26.7 | 3.87 fold (wild type = 1.00) | 32.8 | 0.0578 | 1.76e+06 |
| IGF2R domain 11 with glycine at position 1544 (E1544G) (receptor) NEHDDCQVTNPSTGHLFDLSSLSGRAGFTAAYSGKGLVYMSICGENENCPPGVGACFGQTRISVGKANKRLRYVDQVLQLVYKDGSPCPSKSGLSYKSVISFVCRPEAGPTNRPMLISLDKQTCTLFFSWHTPLACEQATHHHHHH | – | 180 | 0.57 fold (wild type = 1.00) | 199 | 0.219 | 1.1e+06 |
| IGF2R domain 11 with histidine at position 1544 (E1544H) (receptor) NEHDDCQVTNPSTGHLFDLSSLSGRAGFTAAYSHKGLVYMSICGENENCPPGVGACFGQTRISVGKANKRLRYVDQVLQLVYKDGSPCPSKSGLSYKSVISFVCRPEAGPTNRPMLISLDKQTCTLFFSWHTPLACEQATHHHHHH | – | 33.7 | 3.07 fold (wild type = 1.00) | 38.3 | 0.0689 | 1.8e+06 |
| IGF2R domain 11 with isoleucine at position 1544 (E1544I) (receptor) NEHDDCQVTNPSTGHLFDLSSLSGRAGFTAAYSIKGLVYMSICGENENCPPGVGACFGQTRISVGKANKRLRYVDQVLQLVYKDGSPCPSKSGLSYKSVISFVCRPEAGPTNRPMLISLDKQTCTLFFSWHTPLACEQATHHHHHH | – | 42.5 | 2.43 fold (wild type = 1.00) | 49.9 | 0.0649 | 1.3e+06 |
| IGF2R domain 11 with leucine at position 1544 (E1544L) (receptor) NEHDDCQVTNPSTGHLFDLSSLSGRAGFTAAYSLKGLVYMSICGENENCPPGVGACFGQTRISVGKANKRLRYVDQVLQLVYKDGSPCPSKSGLSYKSVISFVCRPEAGPTNRPMLISLDKQTCTLFFSWHTPLACEQATHHHHHH | – | 51.1 | 2.02 fold (wild type = 1.00) | 62.4 | 0.0655 | 1.05e+06 |
| IGF2R domain 11 with methionine at position 1544 (E1544M) (receptor) NEHDDCQVTNPSTGHLFDLSSLSGRAGFTAAYSMKGLVYMSICGENENCPPGVGACFGQTRISVGKANKRLRYVDQVLQLVYKDGSPCPSKSGLSYKSVISFVCRPEAGPTNRPMLISLDKQTCTLFFSWHTPLACEQATHHHHHH | – | 37.6 | 2.75 fold (wild type = 1.00) | 44.6 | 0.0566 | 1.27e+06 |
| IGF2R domain 11 with phenylalanine at position 1544 (E1544F) (receptor) NEHDDCQVTNPSTGHLFDLSSLSGRAGFTAAYSFKGLVYMSICGENENCPPGVGACFGQTRISVGKANKRLRYVDQVLQLVYKDGSPCPSKSGLSYKSVISFVCRPEAGPTNRPMLISLDKQTCTLFFSWHTPLACEQATHHHHHH | – | 56.4 | 1.83 fold (wild type = 1.00) | 69.4 | 0.0791 | 1.14e+06 |
| IGF2R domain 11 with proline at position 1544 (E1544P) (receptor) NEHDDCQVTNPSTGHLFDLSSLSGRAGFTAAYSPKGLVYMSICGENENCPPGVGACFGQTRISVGKANKRLRYVDQVLQLVYKDGSPCPSKSGLSYKSVISFVCRPEAGPTNRPMLISLDKQTCTLFFSWHTPLACEQATHHHHHH | – | 211 | 0.49 fold (wild type = 1.00) | 234 | 0.172 | 734000 |
| IGF2R domain 11 with serine at position 1544 (E1544S) (receptor) NEHDDCQVTNPSTGHLFDLSSLSGRAGFTAAYSSKGLVYMSICGENENCPPGVGACFGQTRISVGKANKRLRYVDQVLQLVYKDGSPCPSKSGLSYKSVISFVCRPEAGPTNRPMLISLDKQTCTLFFSWHTPLACEQATHHHHHH | – | 19.7 | 5.24 fold (wild type = 1.00) | 23.3 | 0.0494 | 2.12e+06 |
| IGF2R domain 11 with threonine at position 1544 (E1544T) (receptor) NEHDDCQVTNPSTGHLFDLSSLSGRAGFTAAYSTKGLVYMSICGENENCPPGVGACFGQTRISVGKANKRLRYVDQVLQLVYKDGSPCPSKSGLSYKSVISFVCRPEAGPTNRPMLISLDKQTCTLFFSWHTPLACEQATHHHHHH | – | 60 | 1.72 fold (wild type = 1.00) | 69.3 | 0.0692 | 998000 |
| IGF2R domain 11 with tryptophan at position 1544 (E1544W) (receptor) NEHDDCQVTNPSTGHLFDLSSLSGRAGFTAAYSWKGLVYMSICGENENCPPGVGACFGQTRISVGKANKRLRYVDQVLQLVYKDGSPCPSKSGLSYKSVISFVCRPEAGPTNRPMLISLDKQTCTLFFSWHTPLACEQATHHHHHH | – | 53.2 | 1.94 fold (wild type = 1.00) | 62.8 | 0.0588 | 936000 |
| IGF2R domain 11 with tyrosine at position 1544 (E1544Y) (receptor) NEHDDCQVTNPSTGHLFDLSSLSGRAGFTAAYSYKGLVYMSICGENENCPPGVGACFGQTRISVGKANKRLRYVDQVLQLVYKDGSPCPSKSGLSYKSVISFVCRPEAGPTNRPMLISLDKQTCTLFFSWHTPLACEQATHHHHHH | – | 57.4 | 1.8 fold (wild type = 1.00) | 65 | 0.0614 | 944000 |
